Laboratory results published in article PMC3283998 (The Journal of Cell Biology, 2012).
Where no end group is shown, it is not given here.

T1: Bub1(1–150) (human, UniProt O43683 1-150)
T1 sequence (looked up): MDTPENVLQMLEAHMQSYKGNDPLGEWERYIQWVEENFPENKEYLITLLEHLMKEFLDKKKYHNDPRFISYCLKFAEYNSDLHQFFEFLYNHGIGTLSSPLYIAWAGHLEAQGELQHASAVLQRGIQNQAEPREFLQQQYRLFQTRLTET


Legend:
Bub1(1–150) = target: T1, Bub1(1–150); test: fluorescence polarisation
BubR1(1–204) = BubR1(1–204) (human, UniProt O60566 1-204); test: fluorescence polarisation
BubR1(1–204), sequence (O60566 1-204): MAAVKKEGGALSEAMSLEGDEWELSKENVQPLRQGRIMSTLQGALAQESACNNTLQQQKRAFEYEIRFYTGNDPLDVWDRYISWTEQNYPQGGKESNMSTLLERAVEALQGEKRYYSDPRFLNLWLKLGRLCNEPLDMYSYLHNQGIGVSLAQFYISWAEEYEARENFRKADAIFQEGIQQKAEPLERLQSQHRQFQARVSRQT

| Kd (Bub1(1–150)) [µM] | Kd (BubR1(1–204)) [µM] | Binder |
| --- | --- | --- |
| ~35 |  | STKIDTTSFLANLKLHT (peptide, UniProt Q8NG31-2 174-190, looked up, also: fluorescein (5-FAM) label, position not given here) [Fluorescein (5-FAM)-labeled Knl1(174–190) peptide] |
|  | 0.45 | ENKIDFNDFIKRLKTGK (peptide, UniProt Q8NG31-2 210-226, looked up, also: 5-FAM label, position not given here) [5-FAM–labeled synthetic peptide Knl1(210–226)] |
